Measurements published in the supplement of paper PMC9428881.
± gives the standard error.

Experiment: background-corrected fluorescence of 3'-dye-labeled ssDNA relative to brightest sequence (3'-GCGCG) (fraction); higher = brighter dye fluorescence (less quenching)
Procedure: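 Single-stranded DNA is synthesized in situ on glass microarrays by 5'->3' photolithographic synthesis, with a Cy3 or Cy5 phosphoramidite coupled at the 3' end next to all 1024 permuted pentamers P1-P5. The construct is 5'-T5-(ACGT minus P5..P1 trinucleotides)-T15-P5P4P3P2P1-dye-3'; the dye is a 3' terminal modification, not part of the sequence. Arrays were scanned at 532 nm (Cy3) or 635 nm (Cy5), background from unlabeled oligos was subtracted, and values are averaged over 10 replicate features per array and at least 3 independent syntheses.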

Sequence	background-corrected fluorescence (dye: Cy3 (3' terminal))	background-corrected fluorescence (dye: Cy5 (3' terminal))
TTTTTGCATCATGAGCATGCTTTTTTTTTTTTTTTTGCTA [ATCGT]	0.55 ± 0.032	0.399 ± 0.041
TTTTTGCATCATGATCAGCATTTTTTTTTTTTTTTTGCGT	0.6597 ± 0.003	0.516 ± 0.061
TTTTTGCATCATGATCATCATTTTTTTTTTTTTTTTGCGG [GGCGT]	0.603 ± 0.016	0.543 ± 0.032
TTTTTGCATCATGATCATGATTTTTTTTTTTTTTTTGCGC [CGCGT]	0.596 ± 0.02	0.48 ± 0.034
TTTTTGCATCATGATCATGCTTTTTTTTTTTTTTTTGCGA [AGCGT]	0.675 ± 0.036	0.616 ± 0.044
TTTTTGCATCATGATGAGCATTTTTTTTTTTTTTTTGCCT [TCCGT]	0.444 ± 0.011	0.356 ± 0.021
TTTTTGCATCATGATGATCATTTTTTTTTTTTTTTTGCCG [GCCGT]	0.519 ± 0.027	0.389 ± 0.029
TTTTTGCATCATGATGATGATTTTTTTTTTTTTTTTGCCC [CCCGT]	0.378 ± 0.032	0.272 ± 0.016
TTTTTGCATCATGATGATGCTTTTTTTTTTTTTTTTGCCA [ACCGT]	0.519 ± 0.0069	0.403 ± 0.029
TTTTTGCATCATGATGCGCATTTTTTTTTTTTTTTTGCAT [TACGT]	0.529 ± 0.02	0.394 ± 0.02
TTTTTGCATCATGATGCTCATTTTTTTTTTTTTTTTGCAG [GACGT]	0.526 ± 0.033	0.425 ± 0.029
TTTTTGCATCATGATGCTGATTTTTTTTTTTTTTTTGCAC [CACGT]	0.415 ± 0.035	0.321 ± 0.028
TTTTTGCATCATGATGCTGCTTTTTTTTTTTTTTTTGCAA [AACGT]	0.594 ± 0.0062	0.463 ± 0.026
TTTTTGCATCATGCGCAGCATTTTTTTTTTTTTTTTGATT [TTAGT]	0.579 ± 0.035	0.419 ± 0.05
TTTTTGCATCATGCGCATCATTTTTTTTTTTTTTTTGATG [GTAGT]	0.53 ± 0.0055	0.409 ± 0.037
TTTTTGCATCATGCGCATGATTTTTTTTTTTTTTTTGATC [CTAGT]	0.442 ± 0.024	0.335 ± 0.028
TTTTTGCATCATGCGCATGCTTTTTTTTTTTTTTTTGATA [ATAGT]	0.555 ± 0.039	0.481 ± 0.032

Sequence	background-corrected fluorescence (dye: Cy3 (3' terminal))	background-corrected fluorescence (dye: Cy5 (3' terminal))
TTTTTGCATCATGCTCAGCATTTTTTTTTTTTTTTTGAGT	0.659 ± 0.023	0.539 ± 0.029
TTTTTGCATCATGCTCATCATTTTTTTTTTTTTTTTGAGG [GGAGT]	0.67 ± 0.013	0.529 ± 0.043
TTTTTGCATCATGCTCATGATTTTTTTTTTTTTTTTGAGC [CGAGT]	0.556 ± 0.024	0.422 ± 0.08
TTTTTGCATCATGCTCATGCTTTTTTTTTTTTTTTTGAGA [AGAGT]	0.679 ± 0.038	0.593 ± 0.044
TTTTTGCATCATGCTGAGCATTTTTTTTTTTTTTTTGACT [TCAGT]	0.473 ± 0.034	0.357 ± 0.022
TTTTTGCATCATGCTGATCATTTTTTTTTTTTTTTTGACG [GCAGT]	0.536 ± 0.016	0.433 ± 0.063
TTTTTGCATCATGCTGATGATTTTTTTTTTTTTTTTGACC [CCAGT]	0.418 ± 0.027	0.3 ± 0.02
TTTTTGCATCATGCTGATGCTTTTTTTTTTTTTTTTGACA [ACAGT]	0.527 ± 0.019	0.411 ± 0.026
TTTTTGCATCATGCTGCGCATTTTTTTTTTTTTTTTGAAT [TAAGT]	0.558 ± 0.032	0.436 ± 0.035
TTTTTGCATCATGCTGCTCATTTTTTTTTTTTTTTTGAAG [GAAGT]	0.564 ± 0.02	0.44 ± 0.024
TTTTTGCATCATGCTGCTGATTTTTTTTTTTTTTTTGAAC [CAAGT]	0.461 ± 0.024	0.345 ± 0.021
TTTTTGCATCATGCTGCTGCTTTTTTTTTTTTTTTTGAAA [AAAGT]	0.603 ± 0.021	0.522 ± 0.041
TTTTTGCATGAGCAGCAGCATTTTTTTTTTTTTTTTCTTT	0.504 ± 0.016	0.353 ± 0.032
TTTTTGCATGAGCAGCATCATTTTTTTTTTTTTTTTCTTG [GTTCT]	0.489 ± 0.023	0.371 ± 0.032
TTTTTGCATGAGCAGCATGATTTTTTTTTTTTTTTTCTTC [CTTCT]	0.382 ± 0.043	0.282 ± 0.018
TTTTTGCATGAGCAGCATGCTTTTTTTTTTTTTTTTCTTA [ATTCT]	0.5004 ± 0.0042	0.373 ± 0.022
